This data set in a line: label from the status in PepcDB records.
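Also: failed if final PepcDB status was selected cloned or expressed and not failed if soluble or beyond.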

As for “MAPTLQGQWIKVGQKGGTGPGPRSSHGIAAVGDKLYSFGGELTPNKHIDKDLYVFDFNTQTWSIAQPKGDAPTVSCLGVRMVAVGTKIYIFGGRDENRNFENFRSYDTVTSEWTFLTKLDEVGGPEARTFHSMASDENHVYVFGGVSKGGTMNTPTRFRTIEAYNIADGKWAQLPDPGDNFEKRGGAGFAVVQGKIWVVYGFATSIVPGGKDDYESNAVQFYDPASKKWTEVETTGAKPSARSVFAHAVVGKYIIIFAGEVWPDLNGHYGPGTLSNEGYALDTETLVWEKLGEEGAPAIPRGWTAYTAATVDGKNGLLMHGGKLPTNERTDDLYFYAVNSA”, the protein production entry is given as “failed”. As for “MAQATSPIELALTTGRGHQAEVRLAKPDGSYLPVIASCNPLNRSDGGIVLTLNDISELRSAERAVSDRAEELATLNRELKETSQATTRLVKLGELLQACVTFHEAFSVVGSAMPDFFGGLSGTVHLTSASRNLVEEMAHWGAVRSSVGQFAPEDCWALRRGQEHVAGPGMLTPRCNHITENGGRGYVCMPLAAQGETLGIVHLCEPDAADRPDWLTERQQILRGVVDTLALALANLRLRETLRQQSIRDPNTGLYNRRYLEETSSRELRRMERSGQPLAMIMLDVDHFKQFNDTFGHEAGDLVLKQVAATLLDHARESDVVSRYGGEEFALMMPGTSLADAAERAEALRKAIKQLHLTHRGRTLGTITASFGVSAFPELGASWVEIVNAADRSLYQAKADGRDRVVAGLGRADPQWDLSTASQSVA”, the protein production result is listed as “failed”. The value for “MAQEEAGRLPQVLARVGTSHGITDLACKLRFYDDWAPEYDQDVAALKYRAPRLAVDCLSQALQGPPHDALILDVACGTGLVAVELQARGFLQVQGVDGSPEMLKQARARGLYHHLSLCTLGQEPLPYPKGTFDAVIIVGALSEGQVPCSAIPELLRVTKPGGLVCLTTRTNPSNLPYKEALEAALDSLEQAGAWERLVTQPVDHWELATSEQESGLATCANDGFISGVIYLYRKQETAQGERGRLSIQPLIDH” was “failed”. For the sequence “MAQFPTPFGGSLDIWAITVEERAKHDQQFHSLKPISGFITGDQARNFFFQSGLPQPVLAQIWALADMNNDGRMDQVEFSIAMKLIKLKLQGYQLPSALPPVMKQQPVAISSAPPFGMGGIASMPPLTAVAPVPMGSIPVVGMSPTLVSSVPTAAVPPLANGAPPVIQPLPAFAHPAATLPK”, the protein production entry is listed as “failed”. The same measure for “MAQGNPLTPEEIELLHAGDEENDNTDTLMVIRVPNDGSSATAISIPRDTYVHDENVGNLKINGVYRAYKNRKASELVNSGESDQKHIDELSKEAGRKALISSISDLTGVTVDHYAEVGLLGFVLLTNAVGGVDVCLNNDVYDEFSGADFKAGQQTLRDGQALAFVRQRHGLPRGDLDRIVRQQAFMASLVAKVLSSGTLTNPSKLSDLGEAVSRSVVIDKNWDVMSFANQLQNLAGGNVKFNTIPVTSIDGVGDYGESVVTVDKNQVHQFFDRLLNGNNGEETPTSDSEAPAENPHTSTTIDVLNATSTTGLASQVAGHLSAKHYTIGNIGNALEGMYHESQIVAADPNNEAVKAIAAELGGLPITQRNDLEHHHHHH”: “failed”; for “MAQKMTGALVFDERTDRYDIRFDLNSYYGGLHCGECFDVFVRGKWKPTRIEYGDNWYLVGIRAEDLNGLRVRI”: “failed”. The same measure for “MAQPKFVVAEIVEMEDHPDSDHLHICKVNVGFADPVQIVCGAPNAALGLKTVAALPGAMMPNGSLIFPGALRGVQSYGMLCSALEHHHHHH”: “failed”. The same measure for “MAQPSTTYKFELNLTDLDRNVYESVKQTIARHPSETEERMAVRLLAYALWYNENLSFGRGLSDVDEPALWEKSLDDRVLHWIEVGQPDADRLTWCSRRTERTSLLAYGSLRVWEGKVVSAVKNLKNLSIAAVPQEVLETLATDMPRSIKWDVMISEGTVFVTDDRGQHEVQLQWLLGERG”: “not failed”. As for “MAQQFIDIGANLTDDNYFGNYHGKHYHEEDIDVVLQRAERNGLSHIIITSGCLNDFKKAIEIINKYQNLTNIKLVTTIGVHPTRTNELKQEGYLDELLLLCEKNIDKVVAIGEIGLDYERLQFSDKETQLSGYRTLSILHQKYPYLPFFFHCRKSWSDLCQLNKELGYNGCKGVVHCFDGTEEEMNQILNEGWDIGVTGNSLQSIELLNVMKQIPIERLHIETDCPYCGIKKTSAGFKYLKEKDFGVKVEKYQRNKYVQRRNEPSNIIDIAIIMSSIKHISLFEFVNKVYSNSMNMYFPTMN”, the protein production entry is listed as “not failed”. The value for “MAQQWSLQRLAGRHPQDSYEDSTQSSIFTYTNSNSTRGPFEGPNYHIAPRWVYHLTSVWMIFVVIASVFTNGLVLAATMKFKKLRHPLNWILVNLAVADLAETVIASTISVVNQVYGYFVLGHPMCVLEGYTVSLCGITGLWSLAIISWERWMVVCKPFGNVRFDAKLAIVGIAFSWIWAAVWTAPPIFGWSRYWPHGLKTSCGPDVFSGSSYPGVQSYMIVLMVTCCITPLSIIVLCYLQVWLAIRAVAKQQKESESTQKAEKEVTRMVVVMVLAFCFCWGPYAFFACFAAANPGYPFHPLMAALPAFFAKSATIYNPVIYVFMNRQFRNCILQLFGKKVDDGSELSSASKTEVSSVSSVSPA” was “failed”; that for “MAQRVANIMKPFATGLVVGKFAPLHCGHEKLINTALAQCEELFIISYSVPEMPDCEPEKRLTWLQVRFPQATILVLTPELVARYNLPAIPHNDADADIHRHYVATLCLQILRCRPHAVFTAEDYGDGFANVLARRFAQPVEHVRMARPVGDEAPSGTLIRSDVHRYRYMLANDVYYSFVRRICLLGGESTGKSTLSKALADGLDTVYVAEFGRDYWEEKNGILTADDLLHIACEQVRREQQAEANHYLICDTSPLTTLFYALDQYGHAPQELHQLAEREYSLVVLCGAEFPFVQDGTRQGEVFRARQQVWYEQELSRRNIPYLSVSGPLQERVEQILRQLPD” was “failed”. The same measure for “MAQSETVERILDAAEQLFAEKGFAETSLRLITSKAGVNLAAVNYHFGSKKALIQAVFSRFLGPFCASLEKELDRRQAKPEAQHATLEDLLHLLVSQAMAVKPRSGNDLSIFMRLLGLAFSQSQGHLRKYLEEVYGKVFRRYMLLVNEAAPKLPPIELFWRVHFMLGAAAFSMSGIKALRAMAETDFGVNTSTEQVMHLMVPFFAAGMRAESGIDDPLLAGAQLRPRNKTPAKA”: “not failed”. The same measure for “MAQSINITELNLPQLEMLKNQLDQEVEFLSTSIAQLKVVQTKYVEAKDCLNVLNKSNEGKELLVPLTSSMYVPGKLHDVEHVLIDVGTGYYVEKTAEDAKDFFKRKIDFLTKQMEKIQPALQEKHAMKQAVMEMMSQKIQQLTALGAAQATVKA”: “failed”; for “MAQTKRFVIAGGGRVGKQTAENLVDQGHDVLLIESDEERVEALSDAYIGPVIHGDATRPSILQQADLAEADAIAALTDEPGTNLAICMEAQQYAPSIRTIARAETEADHEYDEVVDATLLPEYLGGDHAADILTGEDIRTLVYPTADLDIIKVTVAPSAPVAGRRLDEIALPSGSLLISTADRTELAGADTVLKAEEQYILAVETDVVDEVLKLMRG”: “failed”; for “MARAPARARGSRGLNCLAGSQQTRIPAQETDDLFTTCQFGETEEDTAVEEAETIDCLSIPKQKLAQSQKKINQFINEKMSTKANKELIRCFILSQIVFGKEHWKCAQALANLAYGYLTLRGLPAQAKKHAESARNTLLTWKRNTTSDKEKKEILETLVILYYTLGIAWLLQNHGKQAYIHLQKAQRNMKELKELNNGSIYEIQVSDKDLTIALGRASLAMHRMHLALAYFEKAICGVILAKGHDTSDLISLYEEIAQIEQLRKNHEQAIQYLQQAYSISVSSFTEVSPQTAEASALLAKAYAMSGESQHRDAVEIYFIRSISTYQTLGSEDYETLTTIEDFCTWLIQNGEKQEAYRLLKSTLNSCTFGDCGKKVAETFYNMGSICFAKGELREAIALLRKCLMIQSLIYGSEHTKSIETKSLLSLLQRPISRFPRTAEQSHGVVARAQMSKISAGMALSASASHWNNQSQMSWDSACIPMGASVLYDTSFRNAVKYSLDCHGQQPEFLSCGGSAS”: “failed”.

Regarding “MARDALTDALTVGELRRRVHALVLGKRQRVYSGAMFLVEVVHHPELSAMLGLEDNKLLLAMIAQRLQMQSDYFQVARHSSDSFMVWAPDLDPRSARDVAPEVLDALSQPYELRGQPLIVGFRLSGALYAQHGACFDELERSLHIAMLHLDESAGAAWNMFEPSMLEHQRHYQGLEHHHHHH”, the protein production result is “failed”. As for “MARESRTNPRAAGRNALGARRFWFVSLAGIVLASGYDILQALQGSAAAAQRLVVPVLLLLWLYRGSDWARWILMVMLLGFGVLNMYLGTGMLRYGVQNWLHIYVFSAFMVATGLYLALAGKDFARYRSHVAARRARRAASQG”, the protein production result is “failed”.

As to “MARFDRYLLSQLVALFGFFSLVLVLVYWINRAVGLFDDLISDGQSALVFLEFSLLALPNVIRLVLPLSAFAATIYVVNRLSQESELVVMQATGFSAFRLARPVIWFGLIVALMMIVLMNLLVPASRATLSARSAEISQNATARFLRDGEFLHPADGVTLYIREVTETGELRDLLLVDDRDPARSTAYTARRALLVRTDTTPKLLMIDGSAQTLTREGRRLELTRFDDVTYDLGAFMTGSGPKRRVLEELPTMTLLAPTAEVLEETRSTRAAALYEGHSRIGQPFLGFASSLIGFAALLLGSFSRFGLWWQILFAVLLLIVVQTINVAASGVGVTDEQLWPLAYAAPVTGFAIGILLLWIGQRPRRLRRALNGIFAS”, the protein production entry was “failed”. Consider “MARHRDRAAGMNMAMMRLRREDPRVVGSFRLHRRLGAGGMGVVYLGSDKKGQRVALKVIRPDLAEDQEFRSRFAREVSAARRIRGGCTARLVAADLEADRPWFATQYVPGPSLHDKVADGGPLGAADVAAVGAALSEGLVAVHEAGVVHRDLKPSNILLSPKGPRIIDFGIAWATGASTLTHVGTAVGSPGFLAPEQVRGAAVTPATDVFSLGATLAYASMGDSPFGHGSSEVMLYRVVHEEAQLHGVPDALAPLVRACLAKDPEERPSTLQLSLRLKEIAAREAQGMADVRPPAPRSGEADVPTGRLADTYPERAQRRPQGRPGPQGTPAPRGTSASRGSAPRGSVPSRGGAPSRGGTPSRGGTPSRGGTSSRGGGTGARSGSRPTPTRDTTGRNSSRNDGGRPAPRGGSGRTAPRTTGTGWRRPANPRLLRQRLFVFVVVTLLVALGIAAAQGCQGPARGLGDERGGGVRATQRDQVDPPGGLPEPRTPGR”, for which the protein production result is recorded as “failed”. The same measure for “MARKCEITGKKTMFGNNVPRKGLAKKKGGAGQHIGVKTKRTFKVNLINKKFFIPNLGRSVSIKVSANALRSISKIGLDAFLKKNCKKIENFLLEHHHHHH”: “failed”. The same measure for “MARKVILFIAMSIDNYIADDQGAVDWLEKNVHGTESDDSYEKMYSKIDTVIMGRTTYEQVTQKLSPEKYVYADRQTYIVTSHLGEDTDKIKYWKQSPVELVKRIQKEKGKDVWIVGGAKLIDPLVQANLIDTYILTTVPIFLGSGIRLFDRLEEQVPVRLIDVYQKNELVYSIYQRG”: “not failed”.

For the origin of these results see a protein production outcome set (Wang et al. 2014).
